We go through one molecule from paper PMC4511006 (2015).

The target in this experiment is C1q CLR (collagen-like region) (UniProt P02745 31-109; P02747 31-112). Description: SPR. Background: In SPR one partner is held on a chip, and binding of the other changes the refractive index at the surface.

Ends that are not written are not given here.

B1: Acetylated PA (AcPA) (peptide)
peptide: IALILEPICCQERAA
modifications: cysteine pairing not given here; also: acetylated, position not given here
In turn, B1 had a koff of 0.000219 s⁻¹.

As a reminder, the koff is a measure of how fast the partners let go of each other. Lower therefore signals slow dissociation.
